Test results taken from US20130209454A1 (CALIFORNIA INSTITUTE OF TECHNOLOGY, published 2013).
Read-outs that look alike come from different tables or passages of the source.

Experiments:
Assay in all cases: cell-based or functional assay
[1] = biological target: HIV-1 Env of strain THRO4156.18 (HIV-1)
[2] = biological target: HIV-1 Env of strain 0330.v4.c3 (HIV-1)
[3] = biological target: HIV-1 Env of strain CNE21 (HIV-1)
[4] = biological target: HIV-1 Env of strain X1254_c3 (HIV-1)
[5] = biological target: HIV-1 Env of strain ZM233M.PB6 (HIV-1)
[6] = biological target: HIV-1 Env of strain 62357_14_D3_4589 (HIV-1)
[7] = biological target: HIV-1 Env of strain 3415.v1.c1 (HIV-1)
[8] = biological target: HIV-1 Env of strain 3817.v2.c59 (HIV-1)
[9] = biological target: HIV-1 Env of strain WEAU_d15_410_787 (HIV-1)
[10] = biological target: HIV-1 Env of strain T255-34 (HIV-1)
[11] = biological target: HIV-1 Env of strain QH0692.42 (HIV-1)
[12] = biological target: HIV-1 Env of strain 6545.v4.cl (HIV-1)
[13] = biological target: HIV-1 Env of strain 1056_10_TA11_1826 (HIV-1)
[14] = biological target: HIV-1 Env of strain C1080.c03 (HIV-1)
[15] = biological target: HIV-1 Env of strain Q461.e2 (HIV-1)
[16] = biological target: HIV-1 Env of strain C2101.c01 (HIV-1)
[17] = biological target: HIV-1 Env of strain 3016.v5.c45 (HIV-1)
[18] = biological target: HIV-1 Env of strain AC10.0.29 (HIV-1)
[19] = biological target: HIV-1 Env of strain TRO.11 (HIV-1)
[20] = biological target: HIV-1 Env of strain T257-31 (HIV-1)
[21] = biological target: HIV-1 Env of strain CAP45.2.00.G3 (HIV-1)
[22] = biological target: HIV-1 Env of strain SC422661.8 (HIV-1)
[23] = biological target: HIV-1 Env of strain ZM214M.PL15 (HIV-1)
[24] = biological target: HIV-1 Env of strain QH0692.42 (HIV-1); remark: listed apart in the source
[25] = biological target: HIV-1 Env of strain ZM109F.PB4 (HIV-1)
[26] = biological target: HIV-1 Env of strain ZM135M.PL10a (HIV-1)
[27] = biological target: HIV-1 Env of strain Du156.12 (HIV-1)
[28] = biological target: HIV-1 Env of strain ZM53M.PB12 (HIV-1)
[29] = biological target: HIV-1 Env of strain ZM214M.PL15 (HIV-1); remark: listed apart in the source
[30] = biological target: HIV-1 Env of strain ZM197M.PB7 (HIV-1)
[31] = biological target: HIV-1 Env of strain CAP210.2.00.E8 (HIV-1)
[32] = biological target: HIV-1 Env of strain AC10.0.29 (HIV-1); remark: listed apart in the source
[33] = biological target: HIV-1 Env of strain TRO.11 (HIV-1); remark: listed apart in the source
[34] = biological target: HIV-1 Env of strain CAP45.2.00.G3 (HIV-1); remark: listed apart in the source
[35] = biological target: HIV-1 Env of strain SC422661.8 (HIV-1); remark: listed apart in the source
[36] = biological target: HIV-1 Env of strain Du172.17 (HIV-1)
[37] = biological target: HIV-1 strain CAP45.2.00.G3 envelope (gp120) (HIV-1)
[38] = biological target: HIV-1 strain SC422661.8 envelope (gp120) (HIV-1)
[39] = biological target: HIV-1 strain ZM214M.PL15 envelope (gp120) (HIV-1)
[40] = biological target: HIV-1 strain T257-31 envelope (gp120) (HIV-1)
[41] = biological target: HIV-1 strain QH0692.42 envelope (gp120) (HIV-1)
[42] = biological target: HIV-1 strain TRO.11 envelope (gp120) (HIV-1)
[43] = biological target: HIV-1 strain AC10.0.29 envelope (gp120) (HIV-1)

B1: NIH45-46 IgG (antibody, V domains shown)
VH: QVRLSQSGGQMKKPGESMRLSCRASGYEFLNCPINWIRLAPGRRPEWMGWLKPRGGAVNYARKFQGRVTMTRDVYSDTAFLELRSLTSDDTAVYFCTRGKYCTARDYYNWDFEHWGRGAPVTVSS
VL: EIVLTQSPATLSLSPGETAIISCRTSQSGSLAWYQQRPGQAPRLVIYSGSTRAAGIPDRFSGSRWGADYNLSISNLESGDFGVYYCQQYEFFGQGTKVQVDI
neutralization IC50 [1]: 1.91 µg/mL | neutralization IC50 [2]: 0.09 µg/mL | neutralization IC50 [3]: 6.01 µg/mL | neutralization IC50 [4]: 0.032 µg/mL | neutralization IC50 [5]: 2.5 µg/mL | neutralization IC50 [6]: 0.06 µg/mL | neutralization IC50 [7]: 0.022 µg/mL | neutralization IC50 [8]: > 50 µg/mL | neutralization IC50 [9]: 0.005 µg/mL | neutralization IC50 [10]: 0.71 µg/mL | neutralization IC50 [11]: 0.72 µg/mL | neutralization IC50 [12]: > 50 µg/mL | neutralization IC50 [13]: 0.094 µg/mL | neutralization IC50 [14]: 2.48 µg/mL | neutralization IC50 [15]: 0.076 µg/mL | neutralization IC50 [16]: 12.8 µg/mL | neutralization IC50 [17]: > 30 µg/mL | neutralization IC50 [18]: 0.9 µg/mL | neutralization IC50 [19]: 1.9 µg/mL | neutralization IC50 [20]: 0.5 µg/mL | neutralization IC50 [21]: > 50 µg/mL | neutralization IC50 [22]: 0.05 µg/mL | neutralization IC50 [23]: 0.3 µg/mL | neutralization IC50 [24]: 0.7 µg/mL | neutralization IC50 [25]: 0.22 µg/mL | neutralization IC50 [26]: 0.36 µg/mL | neutralization IC50 [27]: 0.01 µg/mL | neutralization IC50 [28]: 0.65 µg/mL | neutralization IC50 [29]: 0.05 µg/mL | neutralization IC50 [30]: 0.14 µg/mL | neutralization IC50 [31]: > 50 µg/mL | neutralization IC50 [32]: 0.9 µg/mL | neutralization IC50 [33]: 1 µg/mL | neutralization IC50 [34]: > 50 µg/mL | neutralization IC50 [35]: 0.06 µg/mL | neutralization IC50 [36]: > 50 µg/mL

B2: NIH45-46 IgG (antibody, V domains shown)
VH: B1 VH
VL: B1 VL
neutralization IC50 [37]: > 50 µg/mL | neutralization IC50 [38]: 0.05 µg/mL | neutralization IC50 [39]: 0.5 µg/mL | neutralization IC50 [40]: 0.5 µg/mL | neutralization IC50 [41]: 0.7 µg/mL | neutralization IC50 [42]: 1.9 µg/mL | neutralization IC50 [43]: 0.9 µg/mL
